# Test results reported in US20120204282.
# Legend:
# Test in all cases: cell_activity
# [1] = system: ZFN 22524 (synthetic construct); settings: Cel-I assay; as pair 22524/23947; pair also used for in vivo Q344X correction in mouse retina
# [2] = system: ZFN 23966 (synthetic construct); settings: Cel-I assay; as pair 23966/23974
# [3] = system: ZFN 22529 (synthetic construct); settings: Cel-I assay; as pair 23950/22529
# [4] = system: ZFN 23947 (synthetic construct); settings: Cel-I assay; as pair 22524/23947; pair also used for in vivo Q344X correction in mouse retina
# [5] = system: ZFN 23950 (synthetic construct); settings: Cel-I assay; as pair 23950/22529
# [6] = system: ZFN 23974 (synthetic construct); settings: Cel-I assay; as pair 23966/23974
sequence,measurement,setting,value
CAGTGGGTTCTTGCCGCAGCAGATGGTG (double strand) [RHO exon 5 site for 22524],activity,[1],11.5 % NHEJ
GGGGAGACAGGGCAAGGCTGGCAGAGAG (double strand) [RHO intron 1 site for 23966],activity,[2],9.3 % NHEJ
GAGCCATGGCAGTTCTCCATGCTGGCCG (double strand) [RHO exon 1 site for 22529],activity,[3],8.7 % NHEJ
GTGACGATGAGGCCTCTGCTACCGTGTC (double strand) [RHO exon 5 site for 23947],activity,[4],11.5 % NHEJ
GCCAGGTAGTACTGTGGGTACTCGAAGG (double strand) [RHO exon 1 site for 23950],activity,[5],8.7 % NHEJ
ATGTCCAGGCTGCTGCCTCGGTCCCATT (double strand) [RHO intron 1 site for 23974],activity,[6],9.3 % NHEJ
